The results in this text go back to patent US20140294844A1.

The target of this test is huPrP23-231 (human) (UniProt P04156).

A word on the IC50: it is the concentration that inhibits the measured activity by half. For orientation: Kd means the concentration at which binding is half-saturated. A low value points to tighter binding. The term Ki denotes the dissociation constant of the complex between target and ligand, obtained from inhibition or displacement. Low readings indicate tighter binding, high ones weaker binding. In turn, ICSM-35 (antibody) returned an IC50 of 10.4 nM, a Kd of 10 nM and a Ki of 20 nM.
